Laboratory results reported in the nanobody polyreactivity screen of Harvey et al. (2022).

Experiment: yeast display, Sf9 membrane polyspecificity reagent, FACS + sequencing; frameworks hold sequencing errors
Procedure, shortened: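 Nanobodies from a synthetic yeast display library (Saccharomyces cerevisiae BJ5465), induced 36–48 hours with galactose, were stained 1 hour at 4 °C with 10% biotinylated, detergent-solubilized Sf9 membrane reagent, enriched on streptavidin microbeads, then FACS-sorted. Anti-HA (expression) and streptavidin (reagent binding) fluorescence set low and high (top ~1%) gates. Polyreactivity labels come from the gate of origin. Genes were colony-PCR amplified, MiSeq 2 × 250 sequenced and filtered by CDR length.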

Row | Sequence | polyreactivity (PSR sort gate)
1 | QVWLQESGGGLVQACGSLSLSCAASGTISRDIFMGWYRQAPGKEREFVATIAQGGITNYADSVKGRFTISRDNAKNTVYLQKNSVKPGDTAVYYCEALDGNCYWFYYWGQGTQVTVSS | high polyreactivity
2 | QVQLVESGGGLVQAGGSLRLSCAAYGRIFPLNAMGWNRQAPGKERELVAAISYDGGTYYAYSVKGRFTISRDNAKNTFYLQMNSLKPEDTAVYYCANSRATWVGKHDYWGQGTQVTVSS | low polyreactivity
3 | QVQLVESGGGLVQAGGSLRLSCAASGSTFAYYAMGWYRQAPGKERELVAAISWSGGSTYYADSVKGRFTISRDNAKNTVYLQLNSLKPEDTAVYYCAAGVPSTFQYSYWDYNYWGQGTQVTVSS | low polyreactivity
4 | QVQLVESGGGLVQAGGSLRLSCAASGRIFVFYAMGWYRQAPGKERELVAAITASSTRTYYADSVKGRFTISRDHAKNTVYLQLNSLKPEDTAVYYCARDIRQYILYGRGDYWGQGTQVTVSS | low polyreactivity
5 | QVQHVESVGGLVQAGGSLRLSCAASGFIFRRYVMGWNRQAPGKERELVAAISYGGGSTYYADSVKGRFTISRDNAKNTVYLQMNCLKPEDTAVYYCNAVSYNLAAYEYWGQGTQVTVSS | high polyreactivity
6 | QVQLVESGGGLVQAGGSLRLSCAASGRIFYSYAMGWYRQAPGKESELVAAIRSTGSTNYADSVKGRFTISRDNAKNTVYLQMNSLKPEDTAVYYCAARTSYRSSLFGYWGQGTQVTVSS | high polyreactivity
7 | QVHLVESGGGLVQAGGSLRLSCAASGSIFDVNAMGWYRQSPGKERELVASIDNSGTTNYADSVKGRFTISRDNAKNTVYLLMNSLKPEDTAVYYGAAEYESGDYWGQGTQVTVSS | low polyreactivity
8 | QVQLVESGGGLVQAGGSLGLSCAASGRSLIWYAMGWYRQAPGKERELVAAITSGGRTYYADSVKGRFTISRDNAKKTVYLQMNSLKPEDTAVYYCNKVGRDPGRDFWGQGTQVPVSS | high polyreactivity
9 | QVQLVESGGGLVHAGGSLRLSCAASGRIFFRYAMGWYRQSPGKEREFVATITWSGGRTHYADSVKGRFTISRDNAKNTVYLQMNSLKPEDTAVYYCAASYHRYAFDYWGQGTQVTVSS | high polyreactivity
10 | QVQLVESGGGLVHAGASLRLSCAASGLTFRKYAKGWYRQAPGKERELVAAITGSGGRTYYADSVKGRFTISRDNAKNTVYLQMNSLQPEDTAVYYCAADDYFHDDYWGQGTQVTVSS | high polyreactivity
11 | QVQLVESGGGLVQAGGSLRLSCAASGRNFLPNAMGWSRPAPGKERELVAAITSGGGSTYYADSVKGRFTISRDKAKNTVYLQMNSLKPEDTAVYYCAKQPYRGKYYYWGQGTQVTVSS | high polyreactivity
12 | QVQLVESGGGLVQAGGSLRLSCAASGSTFYVNAMGWYRQTPGKERELVATIPSGSITDYADSVKGRFTISRDNAKNTVYLQMNSLKPEDTAVYYCAKTYVQEHGVDYWGQGTQVTVSS | low polyreactivity
13 | QVQLVESGGGLVQAGGSLRLISAASGSIFPAYDMGLYRQAPGKEREFLPAIERGGSTYYADSVKGRYTISRDNAKNTVYLPMNSLKPVDTAVFYCATDCPEYPNYISSAGFDYWGQGTQVNVSS | low polyreactivity
14 | QVQLVESGGGLVQAGGSLRLSCAASGINFYRYAMGWYRQAPGKERELVAAITGSGGNTYYADSVKGRFTISRDNAKNTVYLQMNSLKPEDTAVYYCAKRDYRHQYNYWGQGTQVTVSS | high polyreactivity
15 | QVQLVESGGGLVQAGGSLRLSCAASGYTFKVYAMGWYRQAPGKERELVAAIRSSGGSTYADSVKGRFTISRDNAKNTVYLQMNSLKPEDTAVYYCAKAGYVSGLYSATRYEYWGQGTQVTVSS | low polyreactivity
16 | QVQLQESGGGLVQAGGSLRLGCAASGYISGFNEMGWYRQAPGKERELDAAITNGGISNYADSVKGRFTISRDNAKNTVYLQMNSLKPEDTAMYYCAAGDFDQSNHAYWGQDTQVTVSS | high polyreactivity
17 | QVQLVESGGGLVQAGGSLRLSCAASGSIFFGNAMGWYRQAPGKERELVAASTTSGGSTYYADSVKGRFTISRDNAKNTVYLQMNSLKPEDTAVYYCNAEYRTGVDGPRSRGGDYWGQGTQVTVSS | low polyreactivity
18 | QVQLVESGGGLVQAGGSLRLSCAASGSIFGINGMGWYRQAPGKERELVAAISDSGGSTYYADSVKGRFTISRDNAKNTVYLQMNSLKPEDTAVYYCAAETYWYFAQFYDLYSYDYWGQGTQVTVSS | low polyreactivity
19 | QVQLVESGGGLVQAGGSLRLSCAASGRIFDSYAMGWYRQAPGKERELVAAISFGGDTYYADSVKGRFTISRDNAKNTVYLQMNSLKPEDTAVYYCAKDNPAALFDSWGQGTQVTVSS | low polyreactivity
20 | QVQLVESGGGLVQAGGSLRLSCAASGSIFPYNAMGWYRQAPGKERELVAAITTSGTSTYYADSVKGRFTISRDNAKNTVYLQMNSLKPEDTAVYYCAATSRGAISKARFYYWGQGTQVTVSS | high polyreactivity
21 | QVQLVESGGGLVQAGGSLRLSCAASGSIFVVNAMGWYRQAPGKERELVAAIDWSDGGTYYADSVKGRFTISRDNAKNTVYLQMNSLKPEDTAVYYCATVRYVQITRDDYWGQGTQVTVSS | low polyreactivity
22 | QIQLEESVGGLVQAGGTLRLSCASSGFTFYINVMGWDRQAPGKERELVAAISGTGGTNYADSVKGRFTISRDNAKNTVYLQMNSLKPEDTAVYYCARDYYVYSTGHVPLDYWGQGTQVTVSS | low polyreactivity

Row | Sequence | polyreactivity (PSR sort gate)
23 | QVQLVESGGGLVQAGGSLRLSCAASGIIFDYYAMGWYRPAPGKERELVAAINWNGGTPYYADSVKGRFTISRDYAKKTVFLQMNSLKPEDSAVYYCNTRGRYLMVDWGHGTQVTVSS | high polyreactivity
24 | QVQLVESGGGLVQAGGSLRISCAASGFTFRSYVMGWYRQAAGKEWELVAAISSRGSSTSYADSVKGRFTISRDNAKNTVYLQMNSLKPEDTAVYDCAPRLFWRGRKFAYWGQGTQVTVSS | high polyreactivity
25 | QVQLVESGGGRDQAGGSLRLSCAASGSTFNGYAMGWYRQAPGKERELVAAISSRGGSTNYADSVKGRFTISRDNAKKTVYLQMNSLKPEDTAVYYCNAVYRRSRSVGSCFDDWGQVTQVTVSS | high polyreactivity
26 | QVQLVESGGGLVQAGGSLRLSCAASGFIFANYAMGWYRQAPGKERELVAVISQRGGRTYYADSVKGRFTISRDNAKNTVYLQMNSLKPEDTAVYYCNAVTGEWGQGTQVTVSS | low polyreactivity
27 | QVQLVESGGGLVQAGGSLRLSCAASGFTFWGNAMGWYRPAPGKERELVAAITDTGSTNYADSVKGRFTISRDNAKNTVYLQMNSLKPEDTAVYYCAKDKAYYDWGQTNGYWGQGTQVTVSS | low polyreactivity
28 | QVQLVESGGGLVQAGGSLRLSCAASGLIFARNAMGWYRQAPGKERELVAAITYSGSRTYYADSVKGRFTISRDNAKNTVYLQMNSLKPEDTAVYYCAARHRYSAVTEYNYWGQGTQVTVSS | high polyreactivity
29 | QVQLVESGGGLVQAGGSLRLSCAASGYNFGVYAMGWYRQAPRKERELVARITSGGSTNYADSVKGRFTISRDNAKITVYLQMNSLKPEDTAVYYCAAAVGNTDREYDYWGQGTQVTVSS | low polyreactivity
30 | QDQLVESGGGLVQAGGSHRLSCAASGRNFNYNAMGWYRQAPGKERELVAAISGSGGRTYYADSVKGRFTISRDNAKNTVYLQMNSLKPEDTAVYYCAAAGYDSNGRYWGQGTLVTVSS | high polyreactivity
31 | QVQLVESGGGLVQAGGSLRLSCAASGFTFTIYAMGWYRQAPGKERELVATISGRAGRTYYADSVKGRFTISRDNAKNTVYLQITSRKPEDSAVYYCNAGQWRYPGLYYYWGHGTQVTVSS | high polyreactivity
32 | QVQLVESGGGLVQAGGSLRLSCAASGLIFTNYAMGWYRQAPGKERELVAGISTRGTSTYYADSVKGRFTISRDNAKNTVYLQMNSLKPEDTAVYYCAAVHRVVRAYDYWGQGTQVTVSS | high polyreactivity
33 | QVQLVESGGGLVQAGGSLRLSCAASGRIFRAIAMGLYRQAPGKERELVAAISFSGGGTYYADSVKGRFTISRDNAKYTVYLQMNSLKPEDTAVYYCAADQFWGGEEYDYWGQGTQVTVSS | low polyreactivity
34 | QVQLVESGGGLVQAGCILRLSCAASGRIYVKAMGCYRQPPGIERELVAAIRSGGSTNYADSVKGLFTISRDNAKNTVYLQMNSLKPEDTAVYYCDAPYRLSKYDYWGQGTQVTESS | high polyreactivity
35 | QVQLVESGGGLVQTGGSLRLSCAASGSIFGEYAMGWYRQAPGKEREFVADITWSDGSTYYADSVKGRFTISRDNAKNTVYLQMNSLKPEDTAVYYCAADSVLDRPVLYLWPWYLGDYWGQGTQVTVSS | low polyreactivity
36 | QVQLVESGGGLVQAGCSLRLSCAASGSIFAPYAMGWYRQAPGKERELVAAISYSGGSTYYADSVKGRLTISRDNAKNTVYLQMNSLKPEDTAVYYCAARVLHQDFYKRYYWGQGTQVTVSS | high polyreactivity
37 | QVQLVESGGGLVQAGGSLRLSSAASGSISADYVMGWYRQAPGKERELVAAISVSAGTTYYADSVKGRFTISRDNAKNTVYLQMNSLKPEDTAVYYCAATDSYYWLYYYGYSPGNDYWGQGTQVTVSS | low polyreactivity
38 | QVQLVESGGGLVQAGGSLRLSCAASGSTLYFNAMGWYRQAPGKERELVATITSGGSTYYADSVKGRFTISRDNAKNTVYFQMNSLKPEDTAAYYCNADFGSYATNGLTPLYDYWGQGTQVTVSS | high polyreactivity
39 | QVQLEESGGGLVQAGGSLRLSCAASGSTFYLYDMGWYRQAPGKERELVAVISWSGGSTSYADSVKGRFTISRDNAKNTIYLQMNSLKPEDTAVYYCNTDFYHWGQGTQVTVSS | low polyreactivity
40 | QVQLVESGGGLVQAGGSLRLSCAASGFIIFDYAMGWYRQAPGKESELVAAITSGGSTDYADSVKGRFTLSRDNAKNTVYLQMNSLKPEDTAVYYCAAVYGSVSRYDYWGQGTQVTVSA | low polyreactivity
41 | QVQLVESGVGLVQAGGSLSLSCAATGRIFNSYMGWYRQAPGKERELDAAISWSSGTSTYYADSVKGRFTISRDNAKNTVYLQMNSLKPEDTAVYYCNADDYYGPYPEEYDYWGQGTQVTVSS | low polyreactivity
42 | QVQLVESGGGLVQAGGSHRLSCAASGRTFSYYAMGWYRQAPGKEREMDADISKSGGRTYYADSLKGRFTISRDNAKNTVYLQMNSLKPEDTAVYYCAAGFYWAVYYSVDYWGQGTQVTVSS | high polyreactivity
43 | QVQLVESGGGLVQAGGRLRLSCAASGRIFLPDGMGWYIQAAGKERELVATITIGGSSTYADSVKGRFTISRDNAKNTVNLQMNSLKPEHTAVYYCAVRRWVYYLHGYDYWGQGTQETVSS | low polyreactivity
